Assay results published in patent US20230151068A1 (FRED HUTCHINSON CANCER CENTER, published 2023).

Target: T1, TfR (Biotinylated; site and any biotin-acceptor or purification tag are not stated in the passages seen.)
T1 construct: also called biotinylated TfR ectodomain; control protein
Test: flow cytometry, 293F cells displaying YAP (SDGF), co-incubated with biotinylated TfR ectodomain (control protein) and streptavidin-Alexa647

T1 sequence (chain, as listed by the source limits assumed): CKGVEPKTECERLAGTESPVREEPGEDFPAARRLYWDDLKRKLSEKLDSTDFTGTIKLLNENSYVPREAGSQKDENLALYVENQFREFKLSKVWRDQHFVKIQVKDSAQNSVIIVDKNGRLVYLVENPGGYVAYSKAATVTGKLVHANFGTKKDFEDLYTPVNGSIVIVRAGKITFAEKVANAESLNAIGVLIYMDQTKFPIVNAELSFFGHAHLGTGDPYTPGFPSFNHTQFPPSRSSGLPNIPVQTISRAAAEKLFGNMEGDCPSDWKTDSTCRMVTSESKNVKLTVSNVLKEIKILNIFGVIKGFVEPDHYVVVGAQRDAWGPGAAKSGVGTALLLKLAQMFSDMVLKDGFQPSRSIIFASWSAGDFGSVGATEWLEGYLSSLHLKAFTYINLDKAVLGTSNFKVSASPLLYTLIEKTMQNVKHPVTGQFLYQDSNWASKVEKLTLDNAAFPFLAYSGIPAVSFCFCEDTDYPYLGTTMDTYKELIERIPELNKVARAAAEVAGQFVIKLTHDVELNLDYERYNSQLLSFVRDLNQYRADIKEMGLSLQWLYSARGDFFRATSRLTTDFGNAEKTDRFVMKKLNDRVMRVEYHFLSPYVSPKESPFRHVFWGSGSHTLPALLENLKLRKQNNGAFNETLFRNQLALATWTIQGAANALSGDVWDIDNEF

B1: SDGF-YAP (50-171), surface-tethered on HEK-293 cells (other, UniProt P46937 50-171, looked up)
chain: AGHQIVHVRGDSETDLEALFNAVMNPKTANVPQTVPMRLRKLPDSFFKPPEPKSHSRQASTDAGTAGALTPQHVRAHSSPASLQLGAVSPGTLTPTGVVSGPAATPTAQHLRQSSFEIPDDV
- binding result: no binding (tested: not shown on the sheet)
